Laboratory results: the nanobody polyreactivity screen of Harvey et al. (2022)

Assay: yeast display, Sf9 membrane polyspecificity reagent, FACS + sequencing; frameworks hold sequencing errors
Procedure, shortened: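 After 36–48 hours of galactose induction, yeast (Saccharomyces cerevisiae BJ5465) displaying a synthetic nanobody library were stained at 4 °C for 1 hour with 10% biotinylated, detergent-solubilized Sf9 membrane reagent. Streptavidin microbeads enriched the stained cells before FACS sorting into low and high (top ~1%) gates on anti-HA and streptavidin fluorescence. Each clone's polyreactivity label reflects its gate of origin.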

Sequence | polyreactivity (PSR sort gate)
QVQLVESGGGLVQAGGSLRLSCAASGSIFSLYAMGWYRQAPGKERELVAAISSSGTSTYYADSVKGRFTISRDNAKNTVYLQMYSLKTEDTAVYYCNAYRRRATYNGDYWGQGTQVTVSS | high polyreactivity
QDQLVESAGGLVQAGGSLRLSCAASASTFIVYAMGWYRQAPGKEREFVATINHSGDSTYYADSVKGRFTISRDNAKNTVYLQMNSLKPEDTAVYYCNATVVFVQYVDYDYWGQGTLVTVSS | low polyreactivity
QVQLVESGGGLVQAGGSLRLSCAASGFTFKRNAMGWYRQAPGKERELVASITSRGGSTDYADSVKGRFTISRDNAKNTVYLQMNSLKPEDTAVYYCAAVKYVVYYRSDYWGQGTQVTVSS | high polyreactivity
QVQLVESGGGLVQAGGSLRLSCAASGSIQYRYAMGWYRQAPGKERELVAAITRSGGSTYYADSVKGRFTISRDNAKNTVYLQMNSLKPEDTAVYYCARQRKVSAHSIEMDYWGQGTQVTVSS | low polyreactivity
QVQLVESGGGLVQAGGSLRLSCAASGYIFATYAMGWYRQAPGKERELVAAITSTGSTYYADSVKGRFTISRDNAKNTVYLQMNSLKPEDTAVYYCAAVSGYRARYYLYYYWGQGTQVTVSA | high polyreactivity
QVQLVESGGGLVQAGGSLRLSCAASGNNFVYNPMGWYRPAPGKERELVAAIDSGGSTNYADSVKGRFTISRDNAKNTVYLQMNSLKPDDTAVYYCAADYFSTYRTIYYYWGQGTQVTVSS | low polyreactivity
QVQLVESGGGLVQAGGSLRLSCAASGSIFYYYTMGWYRAAPGKERELVAGISRSGDRTYYADSVKGRFTISRDNAKNTVYLQMNSLKPEVTAVYYCATRWSSARMDYWGQGTQVTVSS | high polyreactivity
QVQLVESGGGLVQAGGSLRLSCAASGRIFAGYAMGWYRQAPGKEREFVATITSRAGNTYYADSVKGRFTISRDNAKNTVYLQMNSLKPEDTGVYYCAARSRGWAGYYYWYKDYSWGQGTQVTVSS | high polyreactivity
QVQLVESGGGLVQAGGSLRLSCAASGSIFGGNAMGWYRQPPGKERELVAAITDGGNTNYADSVKGRFTISRDNAKNTVYLQMNSMKPEDTAVFYCAARIPGTYGGRYGYDYWGQGTQVTVSS | low polyreactivity
QVQLVESGGGLVQAGGSLRLSCAASGRTFINNAMGWYRQAPGKERELVAAISWDGGRTYYADSVKGRFTISRDNAKNTVYLQMNSLKPEDTAVYYCNAQPNYAYHGEDDYWGQGTQVTVSS | high polyreactivity
QVQLVESGGGLVQAGGSLRLSCASSGRTSVINAMGWYRQAPGKERELVATITWSGASTYYADSVKGRFTISRDNAKNTVYLQMNSLKPEDTAVYYCNAESLYTPYNDTSLTVEYGYWGQGTQVTVSS | low polyreactivity
QVQLVESGGGLVQAGASLRLSCAASGSIFYHNTMGWYRQAPGKERELITYYADSVKRRFTISRDNAKNTVYLQMNSLKPEDTAVYYCAASPVYRTGPGDYDYWGQGTQVTVSS | low polyreactivity
QVQLVESGRGLVQAGGSLRLSCAASGFTLICNARGCYRQAPGKERELVAAITWSGGSTYYADSVKGRFTISRDKAKNTVYLQMNSLKPEDTAVYYCAADYSIQSNDDWGQGTQVTVSS | low polyreactivity
QVQLVESGGGLVQAGGSLRLSCAASGRTFASYTMGWYRQPPGKESELVAAINARGGNTYYADSVKGRFTISRDNAKNTVYLQMNSLKPEDTAVYYCAARQKRFKVAAGYDYWGQGTQVTVSS | high polyreactivity
QDQHVESGGGLVQAGCSLRLSCAASGSIFKDNAMGWYRPAPCKEWELVADITIGDSTTYEDSVKGRFTISRDNAKNTVYLHMNSLKPEDTAVYYCAADNYIIKYDYWDYDYCGQGTQVTVSS | low polyreactivity
QVQLVESGGGLVQAGGSLRLSCAASGFTSQYYAMGWYRQAPGKERELVAAITLRDGSTYYADSVKGRFTISRDNAKNTVYLQMNSMKPEDTAVYYCNTDATSDPYGFGYWGQGTQVTVSS | low polyreactivity
QVQLVESGGGLVQAGGSLRLSCAASGSIFVAYDMGCYRQAPGKESALVAAIDSVGRTNYADSVKGRFTISRDNAKNTVYLQMNSLQPEDTAVYYCNADQYYSFYDPDDYWGQGTQVTVSS | low polyreactivity
QVQLVESGGGLVQAGGSLRLICAASGSIFYGYAMGWYRPAPGKERELVAAISYSGDRTYYADSVKGRFTISRDNAKNSVYLQMNSLKPEDTAVYYCAAQRRYGDDYWGQGTQVTVSS | high polyreactivity
QVQLVESGAGLVQAGGSLRLSCAASGSTSTLNAMGWYRQAPGTERELVAAISRSGTSTYYADSVKGRFTISRDNAKNTVYLQMNSLKPEDTAVYYCAAYSYGPPYYYWGQGTQVTVSS | high polyreactivity
QVQLVESGGGIVQAGGSLRLSCAASGRNFTFYAMGWYRQAPGKERELVAAITKSGGSTYYADSVKGRFTISRDNAKNTVYLQMNSLKPEDTAVYYCAAGNHRRPADYGSWGQGTQVTVSS | low polyreactivity
QVQLVESGGGLVQAGGSLRLSCAASGSTFHTYGMGWYRQAPGKERELVSAIDLSDGSTYYADSVKGRFTISRDNAKNTVYLQMNSLKPEDTAVYYCNADYFPKPYRPDDYWGQGTQVTVSS | low polyreactivity
